For assay [1], the target named is chemokine receptor CCR8 (human) (UniProt P51685). As to the kind of experiment: cell-based or functional assay.
Assay [2] deals with chemokine receptor CCR4 (human) (UniProt P51679). The assay is described as follows: cell-based or functional assay.
The target in assay [3] is human chemokine receptor CCR5 (human), P51681.
For assay [4] the target is unchanged. The assay is described as follows: competition binding against 166 pM 125I-CCL3 on human PBMCs.
In assay [5] the target is T1, chemokine receptor CCR1 (human), P32246.
T1 chain: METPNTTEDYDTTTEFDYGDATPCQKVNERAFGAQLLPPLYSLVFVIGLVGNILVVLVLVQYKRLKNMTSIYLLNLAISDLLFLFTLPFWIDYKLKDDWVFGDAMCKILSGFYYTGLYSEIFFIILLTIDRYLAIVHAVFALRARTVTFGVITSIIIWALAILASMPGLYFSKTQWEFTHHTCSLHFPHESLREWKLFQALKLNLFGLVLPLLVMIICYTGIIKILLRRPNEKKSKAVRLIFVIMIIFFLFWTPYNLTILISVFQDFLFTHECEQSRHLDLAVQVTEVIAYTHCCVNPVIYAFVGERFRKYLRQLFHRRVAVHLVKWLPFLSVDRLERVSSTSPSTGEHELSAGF
The assay is described as follows: cell-based or functional assay.

Assay [6] has as its target human chemokine receptor CCR5 (human), P51681. As to the kind of experiment: cell-based or functional assay.

Like-named read-outs stand apart in the source and are kept apart here.

human chemokine receptor CCR5 (human), P51681, sequence (P51681 whole entry): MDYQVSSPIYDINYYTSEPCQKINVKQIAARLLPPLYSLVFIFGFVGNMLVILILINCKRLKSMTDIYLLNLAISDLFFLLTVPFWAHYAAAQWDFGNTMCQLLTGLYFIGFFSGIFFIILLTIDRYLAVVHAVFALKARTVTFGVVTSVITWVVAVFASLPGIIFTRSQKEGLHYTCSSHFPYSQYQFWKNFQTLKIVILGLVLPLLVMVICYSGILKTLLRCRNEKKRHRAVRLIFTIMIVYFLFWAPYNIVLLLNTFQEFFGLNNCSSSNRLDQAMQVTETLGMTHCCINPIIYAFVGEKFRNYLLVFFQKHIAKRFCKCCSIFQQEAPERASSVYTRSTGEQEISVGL
chemokine receptor CCR8 (human), sequence (P51685 whole entry): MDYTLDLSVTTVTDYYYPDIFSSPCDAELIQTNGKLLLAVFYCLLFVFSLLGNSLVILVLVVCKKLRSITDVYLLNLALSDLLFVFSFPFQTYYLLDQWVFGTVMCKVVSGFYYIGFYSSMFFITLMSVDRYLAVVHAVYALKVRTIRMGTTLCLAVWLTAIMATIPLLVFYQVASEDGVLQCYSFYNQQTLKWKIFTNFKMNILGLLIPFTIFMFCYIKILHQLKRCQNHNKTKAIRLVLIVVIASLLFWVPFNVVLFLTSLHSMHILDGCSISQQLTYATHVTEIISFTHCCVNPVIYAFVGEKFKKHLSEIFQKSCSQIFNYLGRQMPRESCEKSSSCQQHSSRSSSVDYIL
chemokine receptor CCR4 (human), sequence (P51679 whole entry): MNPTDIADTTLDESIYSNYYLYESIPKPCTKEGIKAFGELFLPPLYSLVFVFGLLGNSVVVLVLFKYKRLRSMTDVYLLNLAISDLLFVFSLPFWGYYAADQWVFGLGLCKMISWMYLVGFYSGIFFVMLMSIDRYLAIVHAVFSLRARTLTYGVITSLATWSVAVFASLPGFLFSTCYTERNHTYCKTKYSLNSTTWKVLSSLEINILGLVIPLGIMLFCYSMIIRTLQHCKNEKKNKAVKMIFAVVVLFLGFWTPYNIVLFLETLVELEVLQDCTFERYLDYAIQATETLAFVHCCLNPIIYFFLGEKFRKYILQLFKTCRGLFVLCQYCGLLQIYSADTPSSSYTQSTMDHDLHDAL

B1: CCL1/I309 (ligand, human, UniProt P22362 24-96, looked up)
chain: KSMQVPFSRCCFSFAEQEIPLRAILCYRNTSSICSNEGLIFKLKRGKEACALDTVGWVQRHRKMLRHCPSKRK
On to B1, for which, in assay [1], the EC50, calcium mobilisation in CCR8-CHO cells came to 3.87 nM and the chemotaxis of HUT78 cells, concentration of maximal efficacy is 1 nM.

B2: CCL22 (ligand, human, UniProt O00626 25-93, looked up)
chain: GPYGANMEDSVCCRDYVRYRLPLRVVKHFYWTSDSCPRPGVVLLTFRDKEICADPRVPWVKMILNKLSQ
Regarding B2, the chemotaxis of HUT78 cells, concentration of maximal efficacy in assay [2] came out at 10 nM.

B3: U83A-Npep, N-terminal spliced truncated form of U83A (peptide)
peptide: FICSSPDAELFSEKSRMSSSVLLGCLLCCMDWSAAVPV
modifications: not checked
Broadly, the IC50 is the concentration at which inhibition is half-maximal. A lower IC50 goes with higher potency. In assay [3], B3 had an IC50 of 8.3 nM. For the same molecule, the IC50 in assay [4] was found to be 92 nM. Besides, in assay [5], the blocking of CCL3 induced calcium flux in CCR1-CHO cells by 100 nM pre-treatment amounted to 50% and the blocking of the calcium response to 10 nM U83A in CCR1-CHO cells by 100 nM pre-treatment turned out to be 50%. Further, in assay [6], the inhibition of HIV-1 YU2 infection at 50 nM was < 50% and the reduction of HIV-1 JRCSF infectivity on CEM-NKR-CCR5-luc cells at 5 uM is 90%.

(Values after patent US20110098212A1.)
